Experimental data as given in patent US20090149339A1.

Target: GST-DLG1 PDZ domain fusion protein (human homolog of Drosophila discs large protein AA275-477; PDZ domains 1-2 of 3) (human) [GST: P08515]
Experiment: variant of G assay: 100 µM unlabeled 8-mer with 20 µM biotin-labeled AA2L CLASP-2 peptide on GST-DLG1

Chain of GST-DLG1 PDZ domain fusion protein (human homolog of Drosophila discs large protein AA275-477; PDZ domains 1-2 of 3) (human) [GST: P08515] (P08515 1-218, tags or fused parts left off): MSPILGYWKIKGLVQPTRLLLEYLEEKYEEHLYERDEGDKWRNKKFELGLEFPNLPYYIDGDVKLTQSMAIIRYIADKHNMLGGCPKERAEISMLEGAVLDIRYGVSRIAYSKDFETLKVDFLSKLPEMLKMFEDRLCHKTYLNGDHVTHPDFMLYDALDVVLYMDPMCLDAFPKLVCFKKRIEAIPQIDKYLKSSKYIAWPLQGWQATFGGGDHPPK

percent inhibition: > 50%
Substance: eight amino acid CLASP-2 peptide MTSSSSVV (unlabeled competitor)
